According to US20070077628A1:

T1: Flag-tagged Tsg101, wild type (UniProt Q61187)
T1 sequence: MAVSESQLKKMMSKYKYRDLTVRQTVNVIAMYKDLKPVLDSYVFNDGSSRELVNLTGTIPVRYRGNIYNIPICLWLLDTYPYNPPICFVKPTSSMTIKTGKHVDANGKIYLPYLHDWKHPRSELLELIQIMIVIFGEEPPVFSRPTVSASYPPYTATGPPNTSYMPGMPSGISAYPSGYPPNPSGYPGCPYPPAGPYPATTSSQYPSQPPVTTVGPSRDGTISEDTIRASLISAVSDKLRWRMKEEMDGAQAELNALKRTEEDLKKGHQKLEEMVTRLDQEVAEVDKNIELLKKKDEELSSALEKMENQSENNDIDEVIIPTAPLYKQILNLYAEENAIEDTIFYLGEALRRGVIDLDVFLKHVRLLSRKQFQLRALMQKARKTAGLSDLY

T2: Flag-tagged Tsg101, wild type (murine) (UniProt Q61187)
T2 sequence (looked up): T1 sequence

T3: endogenous Tsg101 of HEK-293T cells, Q99816
T3 chain: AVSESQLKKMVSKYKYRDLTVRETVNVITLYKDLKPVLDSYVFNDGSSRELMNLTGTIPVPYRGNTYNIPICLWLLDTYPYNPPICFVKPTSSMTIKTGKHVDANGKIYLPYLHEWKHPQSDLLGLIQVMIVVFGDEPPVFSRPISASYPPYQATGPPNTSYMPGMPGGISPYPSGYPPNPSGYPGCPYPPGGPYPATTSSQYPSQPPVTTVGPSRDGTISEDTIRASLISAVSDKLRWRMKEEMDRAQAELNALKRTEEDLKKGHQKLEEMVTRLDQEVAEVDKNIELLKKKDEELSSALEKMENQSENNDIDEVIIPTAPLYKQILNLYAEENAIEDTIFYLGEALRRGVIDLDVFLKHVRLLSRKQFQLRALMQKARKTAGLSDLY

T4: Flag-tagged Tsg101, wild type, Q61187
T4 chain: T1 sequence

B1: HA-tagged human Ta1, wild type (enzyme, not shown: small tags and cut ends)
chain: MPLFFRKRKPSEEARKRLEYQMCLAKEAGADDILDISKCELSEIPFGAFATCKVLQKKVLIVHTNHLTSLLPKSCSLLSLATIKVLDLHDNQLTALPDDLGQLTALQVLNVERNQLMQLPRSIGNLTQLQTLNVKDNKLKELPDTVGELRSLRTLNISGNEIQRLPQMLAHVRTLEMLSLDASAMVYPPREVCGAGTAAILQFLCKESGLEYYPPSQYLLPILEQDGIENSRDSPDGPTDRFSREELEWQNRFSDYEKRKEQKMLEKLEFERRLELGQREHTQLLQQSSSQKDEILQTVKEEQSRLEQGLSEHQRHLDAERQRLQEQLKQTEQNISSRIQKLLQDNQRQKKSSEILKSLENERIRMEQLMSITQEETESLRRRDVASAMQQMLTESCKNRLIQMAYESQRQNLVQQACSSMAEMDERFQQILSWQQMDQNKAISQILQESAMQKAAFEALQVKKDLMHRQIRSQIKLIETELLQLTQLELKRKSLDTESLQEMISEQRWALSSLLQQLLKEKQQREEELREILTELEAKSETRQENYWLIQYQRLLNQKPLSLKLQEEGMERQLVALLEELSAEHYLPIFAHHRLSLDLLSQMSPGDLAKVGVSEAGLQHEILRRVQELLDAARIQPELKPPMGEVVTPTAPQEPPESVRPSAPPAELEVQASECVVCLEREAQMIFLNCGHVCCCQQCCQPLRTCPLCRQDIAQRLRIYHSS
B2: ΔCC-hTa1 (HA-tagged hTa1 with the coiled-coil deleted) (protein)
chain: MPLFFRKRKPSEEARKRLEYQMCLAKEAGADDILDISKCELSEIPFGAFATCKVLQKKVLIVHTNHLTSLLPKSCSLLSLATIKVLDLHDNQLTALPDDLGQLTALQVLNVERNQLMQLPRSIGNLTQLQTLNVKDNKLKELPDTVGELRSLRTLNISGNEIQRLPQMLAHVRTLEMLSLDASAMVYPPREVCGAGTAAILQFLCKESGLEYYPPSQYLLPILEQDGIENSRDSPDGPTDRFSREELEWQNRFSDYEKRKEQKMLEKLEFERRLELGQREHTQLLQQSSSQKDEILQTVKEEQSRLEQGLSEHQRHLDAERQRLQEQLKQTEQNISSRIQKLLQDNQRQKKSSEILKSLENERIRMEQLMSITQEETESLRRRDVASAMQQMLTESCKNRLIQMAYESQRQNLVQQACSSMAEMDERFQQILSWQQMDQNKAISQILQESAMQKAAFEALQVKKDLMHRQIRSQIKLEELSAEHYLPIFAHHRLSLDLLSQMSPGDLAKVGVSEAGLQHEILRRVQELLDAARIQPELKPPMGEVVTPTAPQEPPESVRPSAPPAELEVQASECVVCLEREAQMIFLNCGHVCCCQQCCQPLRTCPLCRQDIAQRLRIYHSS
B3: Ta1 ΔPTAP/PSAP (HA-tagged hTa1 with the PTAP motifs deleted) (protein)
chain: MPLFFRKRKPSEEARKRLEYQMCLAKEAGADDILDISKCELSEIPFGAFATCKVLQKKVLIVHTNHLTSLLPKSCSLLSLATIKVLDLHDNQLTALPDDLGQLTALQVLNVERNQLMQLPRSIGNLTQLQTLNVKDNKLKELPDTVGELRSLRTLNISGNEIQRLPQMLAHVRTLEMLSLDASAMVYPPREVCGAGTAAILQFLCKESGLEYYPPSQYLLPILEQDGIENSRDSPDGPTDRFSREELEWQNRFSDYEKRKEQKMLEKLEFERRLELGQREHTQLLQQSSSQKDEILQTVKEEQSRLEQGLSEHQRHLDAERQRLQEQLKQTEQNISSRIQKLLQDNQRQKKSSEILKSLENERIRMEQLMSITQEETESLRRRDVASAMQQMLTESCKNRLIQMAYESQRQNLVQQACSSMAEMDERFQQILSWQQMDQNKAISQILQESAMQKAAFEALQVKKDLMHRQIRSQIKLIETELLQLTQLELKRKSLDTESLQEMISEQRWALSSLLQQLLKEKQQREEELREILTELEAKSETRQENYWLIQYQRLLNQKPLSLKLQEEGMERQLVALLEELSAEHYLPIFAHHRLSLDLLSQMSPGDLAKVGVSEAGLQHEILRRVQELLDAARIQPELKPPMGEVVPAELEVQASECVVCLEREAQMIFLNCGHVCCCQQCCQPLRTCPLCRQDIAQRLRIYHSS

Tests used:
[1] = target: T1, Flag-tagged Tsg101, wild type
[2] = target: T2, Flag-tagged Tsg101, wild type (murine); experiment: cell-based or functional assay
[3] = target: T3, endogenous Tsg101 of HEK-293T cells, …
[4] = target: T4, Flag-tagged Tsg101, wild type, Q61187

Molecule	in vitro ubiquitylation of immunoprecipitated Tsg101 (125I-ubiquitin) [1]	HIV-1 infectivity, single-cycle infection assay [3]	further results
C675A-hTa1 (HA-tagged)	only background ubiquitylation was observed with two RING mutants of hTa1		
H695A-Ta1 (HA-tagged)	only background ubiquitylation was observed with two RING mutants of hTa1		
B1		overexpression of hTa1 reduces infectivity by approximately 40%	decrease in GFP-Gag secretion into virus-like particles (VLPs), HEK-293T cells [2]: > 90%; HIV-1 infectivity, single-cycle infection assay [4]: when combined with an ectopic Tsg101, hTa1 exerted a significantly greater inhibitory effect; in vitro ubiquitylation of immunoprecipitated Tsg101 (125I-ubiquitin) [4]: Substantial Tsg101 ubiquitylation was observed in complexes pre-incubated with WT-hTa1
B2		RING or CC mutants of hTa1 potently inhibited HIV-1 infectivity even in the absence of an ectopic Tsg101	
B3		mediated a relatively mild effect on viral infectivity	
